The target of experiment [1] is T1, … HLA-A*0201 complex (biotinylated soluble pHLA) (human, enzymatically biotinylated (BirA) on the C-terminal biotinylation tag).
T1 construct: also called MAGE A4; not shown: C-terminal biotinylation tag
The experiment in a line: SPR (BIAcore 3000), soluble TCR over immobilised biotinylated pHLA, 25 °C.

In experiment [2] the target is T2, … HLA-A*0201 complex (biotinylated soluble pHLA) (human, enzymatically biotinylated (BirA) on the C-terminal biotinylation tag).
T2 construct: also called MAGE-B2; not shown: C-terminal biotinylation tag
Described as above.

Positions count from the first letter of the chain named.

B1: TCR2 (TCR)
TCR alpha: MKNQVEQSPQSLIILEGKNCTLQCNYTVSPFSNLRWYKQDTGRGPVSLTIMTFSENTKSNGRYTATLDADTKQSSLHITASQLSDSASYICVVSGGTDSWGKLQF
TCR beta: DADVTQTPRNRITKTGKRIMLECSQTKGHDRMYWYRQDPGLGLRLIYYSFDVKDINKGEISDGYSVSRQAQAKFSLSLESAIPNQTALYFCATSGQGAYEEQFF
Broadly, the Kd is the free concentration of one partner at which half of the binding sites on the other are occupied at equilibrium, for simple one-to-one binding. A low value points to higher affinity. On to B1, for which the Kd came out at 17.2 µM in experiment [1] and 198 µM in experiment [2].

B2: TCR4 (TCR)
TCR alpha: B1 TCR alpha with M51L
TCR beta: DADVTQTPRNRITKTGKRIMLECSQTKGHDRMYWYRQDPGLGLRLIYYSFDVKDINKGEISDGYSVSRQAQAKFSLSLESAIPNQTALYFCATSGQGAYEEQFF
B2: the Kd was 5.1 µM in experiment [1] and 52.6 µM in experiment [2].

B3: TCR3 (TCR)
TCR alpha: B1 TCR alpha with M51V
TCR beta: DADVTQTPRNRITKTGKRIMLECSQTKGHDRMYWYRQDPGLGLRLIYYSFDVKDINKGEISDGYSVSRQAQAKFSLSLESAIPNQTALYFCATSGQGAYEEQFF
As for B3, the results for the dissociation constant (Kd) in experiment [1] and in experiment [2] were 2.6 µM and 27.6 µM, respectively.

These data come from patent EP4818200A1 (USWM CT, LLC, dated 2026).
